Our source for the protein production values is a protein production outcome set (Wang et al. 2014).

The data set in a line: label from the status in PepcDB records.
For the sequence “MSFSLWLLVLGCILLTLGLASAYLRLLPVSTSFIYLLFGLAIGPAGLHAWRSGLADISGWFEHLSEAALLISLFIGGLKLRLPLRSPAWTAAWLLAGPVLLGCILGLTLGAHFLFGLDWGLALLVAAILAPTDPVLASDIQVNHAGDDDRLRYAVSGEAGLNDGIAFPFVIAALLLIGQGGGLPGEFDRSGLDWLLRDVLWAIPLGLLVGYCLGHGLGRLAIHLRARHTDTSVSANDFLALALIALSYVGADALGGWGFLASFAAGIGLRHAEVATLGRASAPAEAQAAAADVREAGQASGAIEYGADRSEHPKVAAGAVMLDVLSFGNLLERSLEVLLVTLLGAMLYQHWDWRALPLALLLFCVCRPAMVWLLVGRRLMHPAQRRLLGWFGIRGIGSLYYLSYALNQGLPTALAHTASDLVLSLVALSICVHGLSIQPLLMRHARSVSRRDRE”, the protein production entry was “failed”. With “MSFVAGVIRRLDETVVNRIAAGEVIQRPANAIKEMIENCLDAKSTSIQVIVKEGGLKLIQIQDNGTGIRKEDLDIVCERFTTSKLQSFEDLASISTYGFRGEALASISHVAHVTITTKTADGKCAYRASYSDGKLKAPPKPCAGNQGTQITVEDLFYNIATRRKALKNPSEEYGKILEVVGRYSVHNAGISFSVKKQGETVADVRTLPNASTVDNIRSIFGNAVSRELIEIGCEDKTLAFKMNGYISNANYSVKKCIFLLFINHRLVESTSLRKAIETVYAAYLPKNTHPFLYLSLEISPQNVDVNVHPTKHEVHFLHEESILERVQQHIESKLLGSNSSRMYFTQTLLPGLAGPSGEMVK” the entry was “failed”; with “MSGAGKKIADVAFKASRTIDWDGMAKVLVTDEARREFSNLRRAFDEVNTQLQTKFSQEPEPIDWDYYRKGIGAGIVDKYKEAYDSIEIPKYVDKVTPEYKPKFDALLVELKEAEQKSLKESERLEKEIADVQEISKKLSTMTADEYFEKHPELKKKFDDEIRNDNWGY”, “failed”. For the sequence “MSGDEAVAAPVVPPVAEAAVIPEDMDVSTALELTVRKSRAYGGVVRGLHESAKLIEKRNAQLCVLAEDCNQPDYVKLVKALCADHSIKLLTVPSAKTLGEWAGLCKIDSEGNARKVVGCSCLVIKDFGEETTALNIVKKHLDSN”, the protein production result is listed as “failed”. With “MSGDFDTIRDASSPDEVQLVRLLEEKIKSLQIEIENLRKELNYYKAEMEKMLSPPLIEAVVLDVLPDGRVLVRSSSGPNLVVNIASHIDQKLIKPGISVALNQRGSTILEVLPQKE” the entry was “not failed”. For “MSGGQQERHVLILNTVGGRRAIALEAAAYSLGRDESNAIVIDFETVSRQHAILLRVPVPGTTSYRYRLVDGNANGKPSTNGTFVNGKRISSHELQHGDVILFGRKAKASYLLLSMADTEFSQYLQSIAFQSIKSDLRGAKETLVGMELSGELRRTPNRELEHHHHHH”, the protein production result is given as “not failed”.

In the case of “MSGKNEADSKDTGWEQIKDKGKIVVATSGTLYPTSYHDTDSGSDKLTGYEVEVVREAAKRLGLKVEFKEMGIDGMLTAVNSGQVDAAANDIDVTKDREEKFAFSTPYKYSYGTAIVRKDDLSGIKTLKDLKGKKAAGAATTVYMEVARKYGAKEVIYDNATNEQYLKDVANGRTDVILNDYYLQTLALAAFPDLNITIHPDIKYMPNKQALVMKKSNAALQKKMNEALKEMSKDGSLTKLSKQFFNKADVSKKIDADVQDVDLLEHHHHHH”, the protein production entry was “not failed”. Consider “MSGKSSPLSVLEYLAIFAIIMTWGINNAAAKVATAYLPPMTVGGLRFLAALVFLFPFIRPPFPEPKKLAAIVLLTGPIHFGLVYVGFGMGQSLSPLVVASQLWIPFTALVAWKLLGETMRLPAVLGLIVAFVGVAWMTLDPHTSGDLPAIVLIVLASACWAVATILVRMTPGAKPLKVQAVTALFAAPSLLAMSFAFETQVVERVMTAPPIAWACVIFAGVVSTIGASALLFWLVQRREAGRVTPYFLLTPLVSCTLGVAFLGDKLTPQLLIGGAATMVGVALVAMTEKRARAEEALAETA”, for which the protein production result is given as “failed”. As to “MSGLDATIINTAIPAIVSDLHGIQYMGWIVACFLLGMSVSVPIWSKLGERMGNKFAFELSLVLFILGSVLEGVAPDIYFFLISRVLMGVGAGGMGSLPYVIVGFIYPNIKRRTVILSYIAASFSAACIAGPLVGGWIVDALSWHWVFYINVPLGLISIILSIAFYRDAHKSKEKVQFDKMGAFTLIAGLTCFLIGIQMLGLASNVMVALFVIVGIILLISFIFIEKKAKSPIVPLSVFLNKALVGDFVLFALAWGAYIAVNTYLPMWSQAILGTSALIGGMTLIPNSILDIAGSQTAPYFLRRFSNYHLLIVDFTLIAITILGLILVPLNTSYWILMLIAAFSGLGVGSIFVILQIKVQIDASEKDMAPATSLSFLIRILAQTIMAAIYGVIMNLALARGIAGHRGITMTMMNKLSDAESAKSLPTAMLPTMRTIFHSGIIEIMCVALFLVVCAYVINFIYNRKEAKKVAE”, the protein production entry is listed as “failed”.

In the case of “MSGLLSIFDLSDERGVLRTSIAVTFVISFLGIGFGLFSGSFSIVFDGVYSLIDAGMSLLSLIVVNLITSYAVADHLSRKLRERFSFGLWHLEPMVLGLNGILLISAALYALVTAIGSLLSGGRDLEFGSALIYAAVTVIACAGIAAVEWRANRKIGSEFLRLDVRGWIMSAGISAALLIAFMIGLAVQGTSWQWISPYIDPAVLAAVCVLIIPLPVSTVRQALADIFLVTPVDLKKHLDTVAAAFVAKHGFVSYRAYVARVGRSKEIELYFIVPADAPARTIGEWDMLRDEIGDLVGDDGPNRWLTVVFTGDPEWAE”, the protein production entry is “failed”. In the case of “MSGRYEIRFSGAGGQGLILAGVIMAEAASIYDGKQAVQSQSYGPEARGGASKSEVIISDGPVDYPKATQCDALLALTQEACDKYSADLKEGGVLLVDSDLVTKLPPGNYQTTAFNIINTAKNDVGREIVANIVALGAMVALTGVVSKEAAEKAVLSRVPEAFVELNRKAFQMGFEKALAAKK”, the protein production entry is reported as “failed”. On to “MSGSLLLLFVFLSAFLAPPLSRLLRMPVPVGELVIGLLLGHFLAQGVALPEILGFLADFGFLLLMFLAGLEVDFNLLRQLERRHFVFYALYVVGMFLGAGLLAGLLGVGLAQALILALVSIGLMVATLRDMGILGRAFAKRVLILGVLGEVASLFGLTAMEKAAHYQGLLSLLKEVGIIALFFLLLFLAFRLAGLFLWWYPEVGRRLVYEEDPSAMGIRLSLALMFAAAVMSGLVGLESVLGAFLAGMILSYFLQKKHDLEAKLSAMGYGFLIPIFFIRTGMGIDLSGLDGRLLLEVGQALLLMLLIRLLPAPFLLLGGFRLREAFLAALLLAYPFTLMIAGTEIARSAHLLDERAALVLLLAAALSSLLFPWTAKMLLRFLR”, for which the protein production entry is listed as “failed”. The same measure for “MSGVASGKTAIKSTAKVLSFVVQKHWATRLHYDFRLELEGTMKSWAVPKGPSFDPNDKRMAVHVEDHPISYNSFEGEIPSGQYGAGKVIIWDKGTWIPLEDPHKGYRDGKLKFELRGLKLKGHWALVRMRKEENKKQEPWLLIKEKDEYVRSSREYSVVDEMPDSVAELEHHHHHH”: “failed”; for “MSHDRSVNVSHDAVIAKPERGTMLQSFSPRSHGSKGYSLPQDSEENRGSVGQSAGQSSTSVVDQVRSPADDAGVTSSSTICPAPVCRQFWKAGSYNDELSSKSQQPNGKNYLHVHPMFLHSNATSHKWAFGAVAELLDNAVDEIQNGATFVIVDKTTNPRDGATALLIQDDGGGMDPQAMRHCMGFGFSDKKSDSAIGRYGNGFKTSTMRLGADVIVFSRHSKNQTLTQSIGLLSYTYLTRTGHDRIVVPILDYEFNASAGEFKTLQDREHFISSLSILLEWSPFSTEAELLQQFDDVGPHGTKVIIYNMWLNSDAKLELDFDSVAEDILIEGSIKKTGSKIVNDHIASRFSYSLRVYLSILYLRIPETFKIILRGKVVEHHNVADDLMHPQYILYKPQAAGSEEALVVTTIGFLKEAPKVNLHGFCVYHKNRLIMPFWQVINYSSSRGRGVVGVLEANFVEPTHNKQDFEKTVLLQKLENRLKEMTVEYWSCHCVLIGYQVNKKPRLQIPQKVQPAGRQALSPPPGFQAVFPQGNTTSLPRVSTQPVLLEKRKEHPDSVASAALKRKVGNDDFTVPGHIRVEQFIHGSASQSQDIETVKLMEENKKLRAKCLDRKVRSQNLEVKAMNLRSELENYKSEYERLMVELQALDLVKDEHRRNVNT”: “failed”.

On to “MSHEQPVTVSVARTILPGYTRQANAWAHAGQELAREWPGYLGSGWVRNGVDSAEWHMLYRFADADSLQEWEDSEERRWWIDSARDMMETTRVERHTGIEGWFSRPGDVSVVVPETVVPPRWKQAISIFLPFFPLSLLANFLLHPLTQDWQLVLSVLLNIVILTPLMTYIFLPITTRLLQPWLQAKPRKRPR”, for which the protein production result is listed as “failed”. The same measure for “MSHKISEYFANDPPSFFDELASKPKGNNLSTEGSSSSASSTSSAPNMMSNTFVGFFQPPEYVETPEAGEDSIKVGDDVRNLWELPRENEPGKLIMPGIHLQTDLADPISVAVTQHLGEAELSYRKILRVDDVTQDERGLRTLIHAGCYRTAVNLTGRLLTIYGQGYGRSGQPAKHSPHSLQLWFTRLALLAKLGEFELLNAEAEPFGQLTSPDVFYDFYPEMYNGKSGSIACFSFRLLLAELPIYLGKPHVALDRLSELHVTTREIKEHYLSLHNKAAEEFWQRRCERVLHSIINCGLMMKKFSMIDDIMEGTLLKRSNLSKEDRRSLYSAWGRIYLQIGDIFGAEQKIAVSRRLREINSAPDLRDLVDKGLIAVAKNDFPEAYVIFQKALHLDTGNTMILNNMGVCLLYAGKLKDAINLYERAINLNPQKSLNESLLVNLSTLYELESNNSKAKKYNLLRLINRYKPDLNISIEICLKLQTIN”: “failed”. With “MSHPFEGLPTTPTAEELVDKAFSRASRAGGAKDGNEAQQSMLMTASNIASDNMENVVTAWPTIDDLDPFYVELADAVVGEAYPADDDPGIDALKQHLSEISWAADKVVEIRQEYESRVARGDIDTARKLRKQAFARIADVVEEVEDDLAAISTAHNALKDIPDIRPNEPAIVVAGYPNVGKSSFVNRVTRADNEIASYPFTTTQIRVGHFEDQRIRYQLVDTPGLLDRPPEDRNEIESQAVSALEHLADAVLVFIDPSGECGYPLADQLELRNAIEARFDVPVLTIANKSDLSTDVEADHYMSVTEDDNVDGVLQAAIDAVDYELELPFDE” the entry was “failed”. With “MSIDFYNQNASSFYASTVEVDSSSLLEQFTPYLPKGGSVLDAGCGSGRDSKRLIELGFHVDAFDASAALATLAQQLLGKPVRVATFMQFTSTLQYDGIWACASLLHVSKASLPDAFAHLASMLKSGGAFYCSFKYGQGEVERDGRSFTHCDEALLAELLTGSPLVIDKVWLTTDLRVGRENEQWLNAVLLKRLEHHHHHH” the entry was “not failed”; with “MSIESFNLLLLVMGLVALVVFIALYFVRAGYGMFRSRSWGISVNNKIAWILMEAPVFLVMGWLWWHSDRRFLPVELTFFLFFQLHYFQRAFVFPFLMKGKSKMPVLILLMGVIFNILNGLMQGEWIFYLAPSDYYTPGWLLTPCFWIGTLLFFAGMGINWHSDSVIRHLRAPGDTRHYLPQRGMYRYVTSANYLGEIVEWVGWAILTWSLSGCIFAWWTVANLVPRADAIWHRYREEFGTQVGLKKRIFPFLY”, “failed”; with “MSIESSATPTTPNAEALQLNSTEVRILGCLIEKQATNPETYPLTLNALVIACNQKTSRDPVMNLTQGQVGQSLRALEGRGLTRLVMGSRADRWEHKVDKGLELVPAQVILTGLLLLRGPQTVSELLTRSNRMHDFEDSEQVVHQLERLIARGLATLVPRQSGQREDRYMHLIGDPEDLQD”, “not failed”. Regarding “MSIIDLTKLEQKVATMWDSILTNSPFIHEVLDGKATKALYAIYMTETYHYTKHNAKNQALVGIMGKDLPGKYLSFCFHHAHEEAGHELMALSDIASIGFDREDVLSSKPLPATETLIAYLYWISATGNPVQRLGYSYWAENVYGYIDPVLKAIQSTLDLTPQSMKFFIAHSKIDAKHAEEVNEMLHEVCKTQEDVDSVVAVMENSLVLTARILDDVWKEYQLFQSGASDRYAFLRDNA”, the protein production result is recorded as “not failed”.
